The text below walks through data of paper PMC6936867 (2019).

To fix the notation:
B1: FcγRIIa H131 (receptor)
chain: QAAAPPKAVLKLEPPWINVLQEDSVTLTCQGARSPESDSIQWFHNGNLIPTHTQPSYRFKANNNDSGEYTCQTGQTSLSDPVHLTVLSEWLVLQTPHLEFQEGETIMLRCHSWKDKPLVKVTFFQNGKSQKFSHLDPTFSIPQANHSHSGDYHCTGNIGYTLFSSKPVTITVQVPSMGSSSPMGIIVAVVIATAVAAIVAAVVALIYCRKKRISANSTDPVKAAQFEPPGRQMIAIRKRQLEETNNDYETADGGYMTLNPRAPTDDDKNIYLTLPPNDHVNSNN
B2: FcγRIIa R131 (receptor)
chain: QAAAPPKAVLKLEPPWINVLQEDSVTLTCQGARSPESDSIQWFHNGNLIPTHTQPSYRFKANNNDSGEYTCQTGQTSLSDPVHLTVLSEWLVLQTPHLEFQEGETIMLRCHSWKDKPLVKVTFFQNGKSQKFSRLDPTFSIPQANHSHSGDYHCTGNIGYTLFSSKPVTITVQVPSMGSSSPMG
B3: FcγRIIb (receptor)
chain: TPAAPPKAVLKLEPQWINVLQEDSVTLTCRGTHSPESDSIQWFHNGNLIPTHTQPSYRFKANNNDSGEYTCQTGQTSLSDPVHLTVLSEWLVLQTPHLEFQEGETIVLRCHSWKDKPLVKVTFFQNGKSKKFSRSDPNFSIPQANHSHSGDYHCTGNIGYTLYSSKPVTITVQAPSSSPMGIIVAVVTGIAVAAIVAAVVALIYCRKKRISALPGYPECREMGETLPEKPANPTNPDEADKVGAENTITYSLLMHPDALEEPDDQNRI

The target in the experiment is CAP256 pIgG. The experiment in a line: SPR.
On to B1, for which the Kd worked out at 5.8 µM.

As to B2, the Kd worked out at 4.6 µM.

Molecule B3 returned a Kd of 5.3 µM.
